In article doi:10.1101/2022.04.13.488184:

Target: Sulfolobus acidocaldarius SRP54 (Sulfolobus acidocaldarius) (UniProt O07853)
Assay: FRET or BRET

UniProt O07853, sequence (O07853 whole entry): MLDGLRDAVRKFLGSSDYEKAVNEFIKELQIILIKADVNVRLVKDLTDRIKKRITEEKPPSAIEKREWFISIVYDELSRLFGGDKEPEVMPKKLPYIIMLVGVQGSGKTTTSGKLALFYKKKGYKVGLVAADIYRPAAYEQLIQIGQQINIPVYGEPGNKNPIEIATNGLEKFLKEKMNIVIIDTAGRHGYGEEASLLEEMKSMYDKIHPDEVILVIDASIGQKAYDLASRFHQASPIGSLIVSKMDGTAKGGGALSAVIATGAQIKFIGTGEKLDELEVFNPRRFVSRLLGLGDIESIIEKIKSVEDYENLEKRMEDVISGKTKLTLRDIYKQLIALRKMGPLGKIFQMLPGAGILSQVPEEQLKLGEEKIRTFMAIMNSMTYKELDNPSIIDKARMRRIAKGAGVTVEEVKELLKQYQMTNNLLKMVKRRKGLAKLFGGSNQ

Row | Substance | Kd
1 | FtsYΔαN1 (Tyr87-Ser369) (from UniProt P27414 87-369) (domain or fragment) | 75 nM
2 | FtsYΔαN2 (Ser109-Ser369) (from UniProt P27414 109-369) (domain or fragment) | 114 nM
3 | FtsYΔαN3 (Gly129-Ser369) (from UniProt P27414 129-369) (domain or fragment) | 272 nM
